Patent US20240118200A1

Columns and labels:
[1] = target: glycoproteins on HeLa cells; assay: SPR imaging on fixed HeLa cells on gold, 50 µg/ml WGA, average of 10 cells, first order kinetic fit
[2] = target: glycoproteins on HeLa cells; assay: CAR imaging on fixed HeLa cells on glass, 50 µg/ml WGA, average over cells, first order kinetic fit

B1: wheat germ agglutinin (WGA) with Alexa Fluor 488 tag (protein, UniProt P10968 27-197, looked up)
chain: QRCGEQGSNMECPNNLCCSQYGYCGMGGDYCGKGCQNGACWTSKRCGSQAGGATCTNNQCCSQYGYCGFGAEYCGAGCQGGPCRADIKCGSQAGGKLCPNNLCCSQWGFCGLGSEFCGGGCQSGACSTDKPCGKDAGGRVCTNNYCCSKWGSCGIGPGYCGAGCQSGGCDG
modifications: Alexa Fluor 488 label, site not stated
Kd [1]: 53 nM
koff [1]: 0.00013 s⁻¹
kon [1]: 2500 M⁻¹ s⁻¹
Kd [2]: 42 nM
koff [2]: 0.00026 s⁻¹
kon [2]: 6000 M⁻¹ s⁻¹
